Measurements published in patent US20250296995A1.

What follows are substances tested against recombinant Plasmodium falciparum circumsporozoite protein (CSP) (Plasmodium falciparum) (UniProt P19597) (assay: cell-based or functional assay).
recombinant Plasmodium falciparum circumsporozoite protein (CSP) (Plasmodium falciparum), sequence (P19597 21-375 limits assumed): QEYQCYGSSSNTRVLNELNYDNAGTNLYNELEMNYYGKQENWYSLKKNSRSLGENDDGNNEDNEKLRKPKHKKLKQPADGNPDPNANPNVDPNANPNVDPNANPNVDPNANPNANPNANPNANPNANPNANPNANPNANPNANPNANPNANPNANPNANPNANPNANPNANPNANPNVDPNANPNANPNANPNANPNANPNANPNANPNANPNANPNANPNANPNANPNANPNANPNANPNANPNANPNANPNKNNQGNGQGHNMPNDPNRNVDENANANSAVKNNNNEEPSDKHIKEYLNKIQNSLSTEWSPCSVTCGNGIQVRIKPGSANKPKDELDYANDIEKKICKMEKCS

Geo Mean EC50 (ug/ml), ADNKA, Donor 1	Geo Mean EC50 (ug/ml), ADNKA, Donor 2	Geo Mean EC50 (ug/ml), ADNKA, Donor 3	Geo Mean EC50 (ug/ml), ADNKA, Donor 4	Substance
0.0027 µg/mL	0.0022 µg/mL	0.0276 µg/mL	0.0111 µg/mL	317 DE-LS (antibody)
0.0567 µg/mL	0.231 µg/mL	0.151 µg/mL	0.0709 µg/mL	317 LS (antibody)
0.0277 µg/mL	0.143 µg/mL	0.104 µg/mL	0.0643 µg/mL	CIS43 LS (antibody)
0.038 µg/mL	0.514 µg/mL	0.0887 µg/mL	0.0286 µg/mL	L9 LS (antibody)

These substances were tested against recombinant Plasmodium falciparum circumsporozoite protein (CSP) (Plasmodium falciparum) (UniProt P19597) (assay: SPR, recombinant CSP; geometric mean, n=2).

Kd	Substance
0.04 nM	L9 (antibody)

What follows are substances tested against human FcRn (human) (UniProt P55899) (assay: SPR, human FcRn, pH 6.0).

Kd	Substance
174 nM	L9 (antibody)
102 nM	hIgG1 WT control (antibody)
